According to patent publication US8217140B2, “Peptides capable of binding to serum proteins and compounds, constructs and polypeptides comprising the same” (Ablynx N.V., priority 2008, dated 2012):
Read-outs that look alike come from different tables or passages of the source. Values belong to the molecule of their own block, whether it stands above or below them.

Tests used:
[1] = molecular target: T1, human serum albumin (Homo sapiens, UniProt P02768); experiment: Co-crystal structure and in silico modelling of peptide with human serum albumin; conditions: crystal structure and modeling data
Description: The crystal structure was determined as follows: the purified proteins were used in crystallization trials employing both, a standard screen of approximately 1200 different conditions, as well as crystallization conditions identified using literature data. Conditions initially obtained have been optimized using standard strategies, systematically varying parameters critically influencing crystallization, such as temperature, protein concentration, drop ratio, etc. These conditions were also refined by systematically varying pH or precipitant concentrations. Crystals were obtained via the method of co-crystallization.
Crystals have been flash-frozen and measured at a temperature of 100K. The X-ray diffraction have been collected at the SWISS LIGHT SOURCE (SLS, Villigen, Switzerland) using cryogenic conditions. Data were processed using the programs XDS and XSCALE. The phase information necessary to determine and analyze the structure was obtained by molecular replacement. Subsequent model building and refinement was performed with the software packages CCP4 and COOT. The peptide parameterization was carried out with the program […].
Modeling of the interaction was performed using ICM-Pro (Molsoft) and Discovery Studio (Accelrys) with a force-field that is based on the parameters as described in Momany et al. (Momany et al. J. Phys. Chem. 1975, 79, 2361-2381)

[2] = molecular target: T1, human serum albumin; experiment: Phage ELISA on HSA-coated plates; assay type: binding; conditions: phage clones; near-infrared fluorescence intensity vs phage dilution, FIG. 2
Description: 5-fold serial dilutions of phage clones (starting from ˜5×10^11 phage) were added to 96-well Nunc Maxisorp plates coated with human serum albumin (2 μg/ml in PBS, overnight at 4° C.; plates were blocked with Superblock T20 (Pierce) for 1 h at room temperature). The microtiter plate was washed with wash buffer (PBS, 0.05% Tween 20) and bound phages were detected with anti-M13 and goat-anti mouse IRDye conjugate (610-130-121, Rockland). The amount of IRDye bound was measured on Odyssey (LI-COR Biosciences). The dilution of phage was plotted against measured near-infrared fluorescence intensity (FIG. 2).

[3] = tested on: irrelevant protein antigen; experiment: Surface plasmon resonance control on chip coated with irrelevant protein, Example 6; assay type: binding; conditions: 5 μM injected; CM5 chip coated with irrelevant protein (2400RU)
Description: (§1) The binding of the resulting 2D3-17D12 and 2D3-56H5 fusion proteins to human serum albumin was determined using surface plasmon resonance analysis. For this purpose, the fusion proteins were expressed in E. coli TG1 cells. The fusion proteins were purified by IMAC/SEC and binding to HSA was assessed in BIAcore™ 3000, by injecting 1 μM and 5 μM of the 2D3-17D12 and 2D3-56H5 fusion proteins on a CM5 chip coated with ˜7000 RU human serum albumin (Sigma, 99% pure) and 2460 RU an irrelevant protein antigen (reference). Coating of the chip (CM5) was performed by amine coupling using NHS/EDC for activation and ethanolamine for deactivation (Biacore amine coupling kit). HBS-EP was used as flow buffer at a rate of […]. 20 μl of sample was injected for 120 s. The 2D3 Nanobody was injected as control.

[4] = molecular target: T1, human serum albumin; experiment: Surface plasmon resonance (BIAcore 3000) of 2D3 fusion proteins, Example 6; assay type: binding
Description: as §1

[5] = molecular target: T1, human serum albumin; experiment: Surface plasmon resonance (BIAcore 3000) of 2D3-9GS-56E4 and 2D3-9GS-59C2, Example 11; assay type: binding
Description: (§2) The binding was determined in BIAcore™ 3000, by injecting concentration series of the fusion proteins ranging from 2 μM to 200 nM on a CM5 chip coated with ˜3000 RU HSA or CSA. Coating of the chip (CM5) was performed by amine coupling using NHS/EDC for activation and ethanolamine for deactivation (Biacore amine coupling kit). HBS-EP was used as flow buffer at a rate of 45 μl min-1. 90 μl of sample was injected for 120 s.

[6] = molecular target: Cynomolgus monkey serum albumin (Macaca fascicularis, UniProt A2V9Z4); experiment: as above; assay type: binding
Description: as §2

[7] = Pharmacokinetic profile in male cynomolgus monkeys: monovalent Nanobody 2D3 constructs; assay type: in vivo, Cynomolgus monkey
Description: The pharmacokinetic profile of this 2D3-9GS-EXP56E4 Nanobody construct (“construct” or “test item” hereafter) was analysed in male cynomolgus monkeys of approximately 3 to 4 years old and was compared to the 2D3 control (“control” or “negative control” hereafter). The construct and the control were each injected in three monkeys. Both the construct and the control were administered at a dose of 2 mg/kg via intravenous infusion. Blood samples were taken at predose, 5 min, 20 min, 1 h, 2 h, 4 h, 8 h, and 16 h after administration and at test days 2, 3, 5, 7, 9, 12, 15, 18, 21, 24, 27, 30, 33, 36, 39, 42, 45, 48, 51, 54, and 57 after the start of the infusion. In order to obtain at least 0.25 mL serum per animal per sampling time, a sufficient volume of whole blood was withdrawn per sampling time and the serum was isolated after 1 h of incubation at 37° C. The serum samples were stored at −80° C.
Serum samples were tested for serum levels of construct and the control, respectively, using the following ELISA assay.
96-well microtiter plates (Maxisorp, Nunc, Wiesbaden, Germany) were coated for 1 hour at 37° C. with Recombinant Human ErbB2/Fc Chimera, C F (R&D Systems, Minneapolis) in PBS at 3 μg/mL for the negative control and 4.5 μg/mL for the test item. Wells were aspirated and blocked for 30 minutes at room temperature (RT) with SuperBlock®T20 PBS (Pierce, Rockford, Ill.). After this blocking step, wells were washed with PBS-0.05% Tween20.
Preparations for the standards, QC samples and dilutions of the test samples were performed in a non-coated (polypropylene) plate.
Standard curve and QC-samples: Solutions at the required concentrations were prepared in PBS 0.1% casein and spiked into 100% monkey serum. To prepare standards and QC samples, a 1/10 dilution of the pure monkey serum dilutions was made in PBS-0.1% casein.
Test samples: Dilution factors for the test samples were estimated, and varied from 1/10 to 1/500. Samples were diluted 1/10 in PBS 0.1% casein in a first step, and if needed, further dilution was done in PBS 0.1% casein containing 10% monkey serum. These sample dilutions were further serially diluted 1/5 in PBS 0.1% casein with 10% monkey serum over 2 wells.
Standards, QC samples and the 1/5 dilutions of the test samples were transferred onto the coated plate and incubated for 1 hour at RT. Afterwards the plates were washed and rabbit polyclonal anti-VHH K1, purified against protein A and Her2/Fc depleted, was added at 1 μg/mL in PBS 0.1% casein, and incubated for 1 hour at RT. After washing a 1/2000 dilution in PBS 0.1% casein of horse radish peroxidase labelled goat anti-rabbit (Dakocytomation, Denmark) was added to the plate and incubated for 30 minutes at RT. This enzyme catalyzes a chemical reaction with the substrate sTMB (3,3′,5,5′-tetramethylbenzidine, SDT reagents, Brussels, Belgium), which results in a colorimetric change. After stopping this reaction after 15 minutes using HCl (1N), the intensity of the colour was measured by a spectrophotometer, which determines the optical density of the reaction product, using a 450 nm wavelength of light.
The concentration of the construct and the control in the serum samples was determined towards a standard curve of the construct and the control, respectively. The concentration determination was performed using the sigmoidal dose-response curve with variable slope. All serum samples were tested minimally in duplicate. Average values were reported. For each sample standard deviations and precision between the different results was calculated.
For blood sampling and processing, the pharmacokinetic profile of the constructs (2D3-9GS-EXP56E4 and 2D3-9GS-EXP59C2) and the negative control 2D3 were determined in male Cynomolgus monkeys of approximately 3 to 4 years old and was compared to that of the control (2D3). The constructs and the control were administered to three monkeys at a dose of 2 mg/kg by intravenous bolus injection. […]

[8] = serum, i.v. bolus 2 mg/kg, male Cynomolgus monkey, mean n = 3

Sequence of Cynomolgus monkey serum albumin (A2V9Z4 25-608): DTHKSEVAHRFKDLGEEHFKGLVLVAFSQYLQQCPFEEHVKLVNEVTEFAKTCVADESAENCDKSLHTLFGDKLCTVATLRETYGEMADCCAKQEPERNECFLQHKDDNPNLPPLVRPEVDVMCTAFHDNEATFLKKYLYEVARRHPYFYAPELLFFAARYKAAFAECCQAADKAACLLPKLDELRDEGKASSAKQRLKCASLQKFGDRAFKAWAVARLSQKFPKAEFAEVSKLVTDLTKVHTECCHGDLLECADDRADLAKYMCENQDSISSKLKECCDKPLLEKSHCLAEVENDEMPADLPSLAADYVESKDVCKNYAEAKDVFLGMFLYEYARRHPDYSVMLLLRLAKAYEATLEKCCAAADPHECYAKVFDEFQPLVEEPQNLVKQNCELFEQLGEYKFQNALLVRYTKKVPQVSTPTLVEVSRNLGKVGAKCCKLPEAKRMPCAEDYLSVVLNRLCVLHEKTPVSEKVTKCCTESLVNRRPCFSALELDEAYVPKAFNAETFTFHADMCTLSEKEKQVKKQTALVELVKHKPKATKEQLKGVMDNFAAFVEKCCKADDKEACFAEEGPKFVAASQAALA

Molecule: AAARYWDYDVFGGGTPVGGAAA [peptide of SEQ ID NO: 143, based on EXP56E4 with an additional N-terminal alanine and three C-terminal alanine residues]
binding site on human serum albumin [1]: binds in a deep subpocket of domain I of human serum albumin

B1: 2D3-56H5: SEQ ID NO: 139, fusion of Nanobody 2D3 and peptide 56H5 with Myc-His tag (protein)
chain: EVQLVESGGSLVQPGGSLRLSCAASGFTFDDYAMSWVRQVPGKGLEWVSSINWSGTHTDYADSVKGRFTISRNNANNTLYLQMNSLKSEDTAVYYCAKNWRDAGTTWFEKSGSAGQGTQVTVSSGGGGSGGGSAAAFYDDYDVFGGGTPAGGAAAEQKLISEEDLNGAAHHHHHH
modifications: Myc-His tag; fusion protein
specific binding to irrelevant protein [3]: no specific binding was detected
binding to HSA (surface plasmon resonance, FIG. 5) ([4]; 1 μM and 5 μM injected, comparison with 2D3-17D12 fusion protein): improved binding
ka ([4]; CM5 chip ~7000 RU HSA): 7570 M⁻¹ s⁻¹
kd ([4]; CM5 chip ~7000 RU HSA): 0.0093 s⁻¹

B2: 2D3-9GS-EXP56E4: SEQ ID NO: 142, fusion of peptide 56E4 and Nanobody 2D3 via 9GS linker (protein)
chain: EVQLVESGGSLVQPGGSLRLSCAASGFTFDDYAMSWVRQVPGKGLEWVSSINWSGTHTDYADSVKGRFTISRNNANNTLYLQMNSLKSEDTAVYYCAKNWRDAGTTWFEKSGSAGQGTQVTVSSGGGGSGGGSRYWDYDVFGGGTPVGG
Kd ([5]; dissociation rate): 0.00497 s⁻¹
Kd ([5]; read-out: KD): 342 nM
ka ([5]; untagged constructs): 1.04E+04 1/ms
koff (dissociation rate constant) ([6]; dissociation rate): 0.00847 s⁻¹
ka ([6]; untagged constructs): 1.71E+04 1/ms
Terminal Half-life ([7]; cynomolgus monkeys, 2 mg/kg intravenous infusion, Table IV): 8.54 ± 0.79 h
Vdss ([7]; i.v. bolus 2 mg/kg, male Cynomolgus monkey, mean n = 3): 0.0503 L/kg
t½ (terminal half-life) ([7]; i.v. bolus 2 mg/kg, male Cynomolgus monkey, mean n = 3, 2 mg/kg): 8.54 h
exposure higher and total body clearance (CL) lower than after 2D3 ([7]; on average, relative to control article 2D3): 23 fold
mean Vdss lower compared to 2D3 ([7]; relative to 2D3): 2.3 fold
terminal half-life (t½) increase relative to 2D3 ([7]; relative to 2D3): 4.2 fold
AUCinf [7, 8]: 458 µg·h/mL
C0 [7, 8]: 66.8 µg/mL

Further lines, results first:

binding to HSA compared to the amino acid sequence of SEQ ID NO: 1 [2]: stronger binding
Molecule: AAPYRDYDVFGGGTPRGE [56 F2]

binding to HSA compared to the amino acid sequence of SEQ ID NO: 1 [2]: stronger binding
Molecule: AAYYYDYDVFGGGTPGGE [56 E2]
